The text below walks through data of patent publication WO2020219978A1.

As usually defined, the EC50 is the concentration giving half of the maximal effect. Low readings indicate a more potent agent, high ones a less potent agent.

In test [1] the target is BCMA on the BCMA+ cell lines (NCI-H929, L363, JJN-3, RPMI-8226, HEK293T-huBCMA, HEK293T-cynoBCMA). Kind of test: flow cytometry on BCMA+ cell lines. A general note: Flow cytometry measures light scatter and fluorescence of single cells or particles in a stream.
In test [2] the target is cynomolgus BCMA (cyno-BCMA), as used in SPR (cynomolgus monkey). The experiment in a line: SPR. (SPR reads the build-up and loss of mass on a sensor chip optically.)
Chain of cynomolgus BCMA (cyno-BCMA), as used in SPR (cynomolgus monkey) (chain, as listed by the source): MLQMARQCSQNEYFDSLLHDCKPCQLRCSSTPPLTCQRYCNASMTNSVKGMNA

In test [1], “CC-93269, bispecific trivalent anti-BCMA/anti-CD3 T cell engaging antibody (TCE) (bispecific antibody)” displayed an EC50 of 3.4 to 15.2 nM. The fold higher affinity than to rodent BCMA in test [2] was 10 fold.
